How the values were obtained:
Siglec15 = Siglec15 expression in BMMs (flow cytometry, immunostaining); type: cell-based, mouse
Protocol: To understand the detailed mechanism of Siglec15 regulating osteoclast formation, we incubated WT BMMs with biotinylated Siglec15 monoclonal antibody and manually separated Siglec15^+ BMMs from Siglec15- BMMs using anti-biotin microbeads and magnetic separators (FIG. 4A). Separated Siglec15* and Siglec15- BMMs were then stimulated with M-CSF and RANKL for osteoclastogenesis. […] One study reported that osteoclast fusion might be initiated by a small subset of progenitors (Levaot et al., 2015); therefore, we combined separated Siglec15^+ BMMs with BMMs isolated from Siglec15^ΔLysM mice in different proportions (1%, 5%, and 10%). […] Immunofluorescent staining confirmed that Siglec15^+ and Siglec15^− BMMs can form multinucleated osteoclasts with normal actin rings, and the expression of Siglec15 was restored in Siglec15^− BMMs during osteoclastogenesis (FIG. 8). […] BMMs cultured with RANKL alone, absent M-CSF, cannot survive during osteoclastogenesis (FIG. 4D, E).
(§1) To explore the molecular mechanism of M-CSF activation of Siglec15, we used U0126, a selective of mitogen-activated protein kinase kinases inhibitor of MEK1 and MEK2. […] To understand Siglec15 transcription, we analyzed the core enhancer of Siglec15 and found three binding sites of MYC with high species […]. Chromatin immunoprecipitation (ChIP) assay was performed to investigate the interaction of MYC with the 3 deoxyribonucleic acid binding sites. […] MYC recognizes and binds to E-box domains with consensus recognition sequence of CACGTG or CATGTG (Guccione et al., 2006). In the 310-bp binding region, we recognized the sequences of TATGTG and AATGTG that share 80% similarities with reported binding bases. To confirm the role of these MYC recognition sequences, we constructed an enhancer reporter with this Siglec15 enhancer, and 3 mutants were derived by site-directed mutagenesis to inactivate the MYC recognition (FIG. 11E). […] Thus, M-CSF activates Siglec15 expression via MEK-ERK-MYC cascade.
Mouse bone specimens were first fixed and then decalcified using 10% EDTA (Sigma-Aldrich, St. Louis, Mo., USA) for 14 days with constant shaking. For the histological assays, the detailed protocols were reported in a previous study (Dou, J. Bone Min. Res. 33, 899-908 (2018)). In short, the samples were then dehydrated and embedded in optimal cutting temperature compound (Sakura Finetek, Torrance, Calif., USA) or in paraffin. Four-μm-thick coronal-oriented femur sections were prepared for TRAP staining. Forty-μm-thick coronal-oriented femur sections were prepared for IF staining. The detailed protocols were described in a previous study study (Dou, J. Bone Min. Res. 33, 899-908 (2018)). Briefly, the sections were incubated with primary antibodies against mouse TLR2 (Santa Cruz Biotechnology, sc-21759, 1:200), Siglec15 (PA5-48221, Thermo Fisher Scientific, 1:100), ST3GAL1 (PA5-21721, Thermo Fisher Scientific, 1:50), and TRAP (Abcam, ab191406, 1:100) for 12 h at 4° C. For sialic acid detection, biotinylated Maackia Amurensis Lectin II (MAL II) (Vector Laboratories, CA, USA) was used to label the α2,3 linkage, and biotinylated Sambucus Nigra Lectin (SNA) (Vector Laboratories, CA, USA) was used to label the α2,6 linkage. Fluorescein-conjugated streptavidin (Vector Laboratories, CA, USA) was used for the addition of a fluorescent label to biotinylated sialic acid conjugates. A Zeiss LSM 780 confocal microscope and an Olympus BX51 microscope were used for image capture.
To sort Siglec15^+ cells, whole bone marrow was collected from mouse femurs and tibias after mice were euthanized with an overdose of inhaled isoflurane. Whole bone marrow cells were also used for culture and induction of BMMs using M-CSF (50 ng mL^−1) for higher Siglec15^+ cell enrichment in further studies. After red blood cell lysis, the cell number was counted, and the same numbers of cells were incubated with a biotinylated mouse Siglec15-specific antibody (PA5-48221, Thermo Fisher Scientific). […]

WT BMMs = assay: In vitro osteoclast differentiation assay (TRAP staining) of BMMs; type: cell-based, mouse
Siglec15 core enhancer = assay: ChIP-PCR of MYC binding at the Siglec15 core enhancer; type: cell-based, mouse; conditions: BMMs, stimulation for 48 h
Protocol: For the ChIP assay, primary BMMs were cultured with M-CSF or GM-CSF stimulation for 48 h to detect Siglec15 core enhancer DNA binding. M-CSF-primed cells were induced with RANKL for another 72 h to detect St3 gal1 core enhancer DNA binding. Afterward, the cells were cross-linked using 1% formaldehyde and lysed. DNA fragmentation was then achieved by enzymatic digestion with micrococcal nuclease (MNase). After digestion, 10% of the sample was preserved as the total input aliquot for further use. The remaining supernatant was then incubated with a ChIP-grade primary antibody against mouse p-CREB (Abcam, ab32096, 10 μg), c-FOS (Abcam, ab27793, 10 μg), or c-MYC (Abcam, ab9132, 10 μg). An anti-RNA Polymerase II antibody was used as the positive IP control, and normal rabbit IgG was used as the negative IP control. […] After elution, the DNA was then purified and recovered according to the manufacturer's instructions, and PCR detection was performed. The PCR primers used to detect MYC binding were as follows: Site #1, forward: [NT] ID NO: 1), and reverse: [NT] ID NO: 2); Site #2, forward: [NT] ID NO: 3), and reverse: [NT] ID NO: 4); and Site #3, forward: [NT] ID NO: 5), and reverse: [NT] ID NO: 6). The PCR primers used to detect FOS binding were as follows: forward: [NT] ID NO: 7), and reverse: [NT] ID NO: 8). The PCR primers used to detect CREB binding were as follows: forward: [NT] […]

St3gal1 = St3gal1 transcription under estrogen; conditions: FIG. 26
MEK-ERK-MYC signaling = assay: Western blot of ERK, MYC phosphorylation and Siglec15 in BMMs; type: cell-based, mouse
Protocol: as §1
(§2) For the co-IP assays, cells were first lysed in the presence of protease inhibitors using IP buffer. […] SDS-PAGE was then used to separate the immunoprecipitates before transfer to a nitrocellulose membrane for immunoblotting procedures. […]

p65 = p65 nuclear translocation (immunostaining, western blot) in BMMs; type: cell-based, mouse
Siglec15-DAP12 = assay: Co-IP of Siglec15 with DAP12 and DAP12 tyrosine phosphorylation in BMMs; type: cell-based, mouse; conditions: BMMs induced with RANKL, sialidase or both
Protocol: To examine whether Siglec15 downstream signaling is activated by binding to sialylated TLR2, co-IP of Siglec15 with DAP12, a key factor for cell fusion, was conducted in BMMs induced with RANKL, sialidase or both. […] Moreover, tyrosine phosphorylation of DAP12 was detected in the co-IP experiment upon RANKL induction of Siglec15 clustering but was again impaired by sialidase treatment (FIG. 28d). We then tested whether TLR2 signaling is activated by binding to Siglec15. The recruitment of MyD88 to TLR2 was examined by co-IP. […] Removal of SA by sialidase reduced MyD88 recruitment and NFATc1 activation (FIG. 28e). […] Cell-cell fusion is a fundamental cellular activity of macrophages, and multinucleation is a complex process that is likely involved in multiple signaling pathways. Activation of downstream signaling by both Siglec15 and sialylated TLR2 is involved in different cells simultaneously, and both signaling pathways could also occur in each cell, which could be the critical mechanism for cell fusion.
as §2

TLR2 [1] = assay: ELISA of peptidoglycan-induced cytokine secretion from BMMs; type: cell-based, mouse; conditions: RANKL, or RANKL plus sialidase
Source text: To test signaling activity of α2,3 sialylation, we removed α2,3 SA of TLR2 induced by RANKL by adding sialidase in the BMM culture. […] To examine the transcriptional mechanism of ST3Gal1 activation by RANKL, we analyzed 5′ promoter sequence of ST3Gal1 and recognized binding sites for CREB1 and FOS (downstream transcription factors of RANKL signaling) in the core enhancer (FIG. 16E). […] To confirm the functional activity of the FOS site, we constructed an enhancer reporter with ST3Gal1 enhancer and FOS mutant binding sites. […] To validate RANKL-induced sialylation in vivo, we crossed RANKL^ﬂ/ﬂ mice with the Dmp1-Cre strain to generate osteocyte-specific RANKL knockout mice (RANKLΔ^Dmp1). […] Furthermore, the Siglec15-TLR2 co-localization that can be observed in RANKL^ﬂ/ﬂ mice disappeared in RANKL^ΔDmp1 mice (FIG. 19B).

TLR2 [2] = assay: Immunostaining of α2,3 and α2,6 sialic acid in WT BMMs; type: cell-based, mouse
Protocol: Because TLR2 has 4 N-linked glycosylation sites (Weber et al., 2004), to investigate the molecular mechanism of sialylation we tested α2,3 and α2,6 N-Linked SA modification, the two most common sialylation pattern in mammalian cells. […] To understand why α2,3 was sialylated, we examined each member expression profile of the entire sialyltransferase family. […] Moreover, α2,3 SA was immunocolocalized with TLR2, not with Siglec15 in WT and Siglec15^ΔLysM BMMs after RANKL stimulation for 24 h (FIGS. 16C, D).
Mouse bone specimens were first fixed and then decalcified using 10% EDTA (Sigma-Aldrich, St. Louis, Mo., USA) for 14 days with constant shaking. For the histological assays, the detailed protocols were reported in a previous study (Dou, J. Bone Min. Res. 33, 899-908 (2018)). In short, the samples were then dehydrated and embedded in optimal cutting temperature compound (Sakura Finetek, Torrance, Calif., USA) or in paraffin. Four-μm-thick coronal-oriented femur sections were prepared for TRAP staining. Forty-μm-thick coronal-oriented femur sections were prepared for IF staining. The detailed protocols were described in a previous study study (Dou, J. Bone Min. Res. 33, 899-908 (2018)). […]

Molecule: GM-CSF: granulocyte-macrophage CSF, encoded by CSF2
- expression of Siglec15 (Siglec15; BMMs treated with GM-CSF, immunostaining): cannot induce
- osteoclastogenesis (WT BMMs; BMMs induced with RANKL+GM-CSF): cannot induce
- binding of MYC with the core enhancer of Siglec15 (Siglec15 core enhancer): cannot induce

Molecule: estrogen
- RANKL-activated St3gal1 transcription (St3gal1): inhibits

Molecule: N#CC(=C(/N)Sc1ccccc1N)/C(C#N)=C(\N)Sc1ccccc1N [U0126, reference compound]
- M-CSF-ERK-MYC-Siglec15 cascade (MEK-ERK-MYC signaling; M-CSF+U0126, 0-72 h): blocked this cascade
- Siglec15 upregulated by M-CSF (Siglec15; BMMs, M-CSF+U0126, immunostaining): abrogated
- cell survival rate (WT BMMs; WT BMMs, U0126 10 μmol·L^-1): decreases
- osteoclastogenesis (WT BMMs; WT BMMs, U0126 10 μmol·L^-1): decreases

B1: M-CSF: macrophage colony stimulating factor (protein, UniProt P09603 33-554, looked up)
Macrophage colony-stimulating …: EEVSEYCSHMIGSGHLQSLQRLIDSQMETSCQITFEFVDQEQLKDPVCYLKKAFLLVQDIMEDTMRFRDNTPNAIAIVQLQELSLRLKSCFTKDYEEHDKACVRTFYETPLQLLEKVKNVFNETKNLLDKDWNIFSKNCNNSFAECSSQDVVTKPDCNCLYPKAIPSSDPASVSPHQPLAPSMAPVAGLTWEDSEGTEGSSLLPGEQPLHTVDPGSAKQRPPRSTCQSFEPPETPVVKDSTIGGSPQPRPSVGAFNPGMEDILDSAMGTNWVPEEASGEASEIPVPQGTELSPSRPGGGSMQTEPARPSNFLSASSPLPASAKGQQPADVTGTALPRVGPVRPTGQDWNHTPQKTDHPSALLRDPPEPGSPRISSLRPQGLSNPSTLSAQPQLSRSHSSGSVLPLGELEGRRSTRDRRSPAEPEGGPASEGAARPLPRFNSVPLTDTGHERQSEGSFSPQLQESVFHLLVPSVILVLLAVGGLLFYRWRRRSHQEPQRADSPLEQPEGSPLTQDDRQVELPV
- MYC phosphorylation via ERK activation (MEK-ERK-MYC signaling; western blot): phosphorylated the Ser62 of MYC
- Siglec15 expression in separated Siglec15- BMMs (Siglec15; FCM, after 3 days of stimulation): restored Siglec15 expression
- proportion of Siglec15+ BMMs (Siglec15; flow cytometry, Siglec15 ΔLysM mice, M-CSF 3 days): no obvious changes
- proportion of Siglec15+ BMMs (Siglec15; flow cytometry, whole bone-marrow cells of Siglec15 fl/fl mice, M-CSF 3 days): significantly increased
- proportion of Siglec15+ BMMs (Siglec15; immunofluorescent staining, Siglec15 fl/fl mice): significantly increased

B2: RANKL: receptor activator of NF-κappaB ligand (protein, UniProt O14788 140-317, looked up)
Tumor necrosis factor ligand …: IRAEKAMVDGSWLDLAKRSKLEAQPFAHLTINATDIPSGSHKVSLSSWYHDRGWAKISNMTFSNGKLIVNQDGFYYLYANICFRHHETSGDLATEYLQLMVYVTKTSIKIPSSHTLMKGGSTKYWSGNSEFHFYSINVGGFFKLRSGEEISIEVSNPSLLDPDQDATYFGAFKVRDID
- p65 nuclear translocation (p65): activated
- association of Siglec15 with DAP12 (Siglec15-DAP12): induced the association of Siglec15 with DAP12
- peptidoglycan-induced secretion of IL-6 (TLR2 [1]): inhibited
- peptidoglycan-induced secretion of TNF-α (TLR2 [1]): inhibited
- α2,3 sialylation of TLR2 (TLR2 [2]): robustly induced
